Measured values from paper PMC9482650, “Quantitative fragmentomics allow affinity mapping of interactomes” (Nature Communications, 2022).

T1: APBA1_1, Q02410
T1 sequence (Q02410 651-752, limits assumed, looked up): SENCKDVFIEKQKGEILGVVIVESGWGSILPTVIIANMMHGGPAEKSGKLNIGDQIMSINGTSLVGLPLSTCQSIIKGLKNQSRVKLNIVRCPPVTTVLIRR

T2: APBA1_2, Q02410
T2 sequence (Q02410 742-832, limits assumed, looked up): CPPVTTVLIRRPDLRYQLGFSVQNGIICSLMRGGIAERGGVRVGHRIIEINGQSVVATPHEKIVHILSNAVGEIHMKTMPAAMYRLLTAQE

T3: APBA2_2, Q99767
T3 sequence (Q99767 654-744, limits assumed, looked up): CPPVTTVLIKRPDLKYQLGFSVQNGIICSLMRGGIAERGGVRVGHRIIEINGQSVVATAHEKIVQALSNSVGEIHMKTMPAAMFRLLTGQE

T4: FRMPD1, Q5SYB0
T4 sequence (Q5SYB0 52-145, limits assumed, looked up): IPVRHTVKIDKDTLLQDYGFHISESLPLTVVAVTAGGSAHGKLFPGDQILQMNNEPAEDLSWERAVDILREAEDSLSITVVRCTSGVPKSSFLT

T5: GRIP1_4, Q9Y3R0
T5 sequence (Q9Y3R0 467-571, limits assumed, looked up): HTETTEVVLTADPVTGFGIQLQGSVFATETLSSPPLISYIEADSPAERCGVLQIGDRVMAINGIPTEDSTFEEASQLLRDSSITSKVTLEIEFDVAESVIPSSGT

T6: GRIP1_5, Q9Y3R0
T6 sequence (Q9Y3R0 568-668, limits assumed, looked up): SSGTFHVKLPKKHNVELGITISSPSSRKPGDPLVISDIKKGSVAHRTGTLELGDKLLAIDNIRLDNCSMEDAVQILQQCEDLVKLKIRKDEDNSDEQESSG

T7: HTRA4, P83105
T7 sequence (P83105 378-476, limits assumed, looked up): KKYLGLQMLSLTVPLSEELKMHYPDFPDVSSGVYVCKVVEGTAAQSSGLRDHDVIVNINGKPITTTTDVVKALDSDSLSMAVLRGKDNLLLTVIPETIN

T8: LIN7B, Q9HAP6
T8 sequence (Q9HAP6 88-185, limits assumed, looked up): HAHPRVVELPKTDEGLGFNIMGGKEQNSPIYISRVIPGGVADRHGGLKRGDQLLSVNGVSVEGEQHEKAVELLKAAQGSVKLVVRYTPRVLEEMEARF

T9: NHERF3_1, Q5T2W1
T9 sequence (Q5T2W1 4-100, limits assumed, looked up): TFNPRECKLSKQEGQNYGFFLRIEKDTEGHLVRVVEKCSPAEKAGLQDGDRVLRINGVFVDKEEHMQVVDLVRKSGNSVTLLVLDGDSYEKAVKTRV

T10: NHERF3_3, Q5T2W1
T10 sequence (Q5T2W1 238-333, limits assumed, looked up): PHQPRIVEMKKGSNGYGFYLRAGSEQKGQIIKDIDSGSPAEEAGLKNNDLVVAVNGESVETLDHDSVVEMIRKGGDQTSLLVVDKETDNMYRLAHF

T11: RAPGEF6, Q8TEU7
T11 sequence (Q8TEU7 525-625, limits assumed, looked up): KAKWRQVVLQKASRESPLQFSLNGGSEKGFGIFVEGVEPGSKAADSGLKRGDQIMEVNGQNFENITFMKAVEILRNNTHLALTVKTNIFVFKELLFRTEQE

T12: SNTB1, Q13884
T12 sequence (Q13884 107-205, limits assumed, looked up): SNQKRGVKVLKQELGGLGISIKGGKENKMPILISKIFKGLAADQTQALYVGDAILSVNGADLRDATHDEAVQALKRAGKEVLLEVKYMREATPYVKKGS


What was measured:
Assay in all cases: holdup assay
Design in all cases: key: below the threshold = too weak to quantify, mostly under pKd 3.1 to 4
Details in all cases: plain residues with an end cap or a label only (N-terminal biotin on a linker: ado-ado)
APBA1_1, Q02410 = molecular target: T1, APBA1_1, Q02410
APBA1_2, Q02410 = molecular target: T2, APBA1_2, Q02410
APBA2_2, Q99767 = molecular target: T3, APBA2_2, Q99767
DLG1_1, Q12959 = molecular target: DLG1_1, Q12959
DLG2_3, Q15700 = molecular target: DLG2_3, Q15700
DLG4_1, P78352 = molecular target: DLG4_1, P78352
FRMPD1, Q5SYB0 = molecular target: T4, FRMPD1, Q5SYB0
FRMPD3, Q5JV73 = molecular target: FRMPD3, Q5JV73
GOPC, Q9HD26 = molecular target: GOPC, Q9HD26
GORASP2, Q9H8Y8 = molecular target: GORASP2, Q9H8Y8
GRASP, Q7Z6J2 = molecular target: GRASP, Q7Z6J2
GRIP1_4, Q9Y3R0 = molecular target: T5, GRIP1_4, Q9Y3R0
GRIP1_5, Q9Y3R0 = molecular target: T6, GRIP1_5, Q9Y3R0
GRIP2_6, Q9C0E4 = molecular target: GRIP2_6, Q9C0E4
HTRA4, P83105 = molecular target: T7, HTRA4, P83105
Inadl_6, Q8NI35 = molecular target: Inadl_6, Q8NI35
LAP2, Q96RT1 = molecular target: LAP2, Q96RT1
LDB3, O75112 = molecular target: LDB3, O75112
LIN7B, Q9HAP6 = molecular target: T8, LIN7B, Q9HAP6
MAGI2_2, Q86UL8 = molecular target: MAGI2_2, Q86UL8
MAST1, Q9Y2H9 = molecular target: MAST1, Q9Y2H9
NHERF3_1, Q5T2W1 = molecular target: T9, NHERF3_1, Q5T2W1
NHERF3_3, Q5T2W1 = molecular target: T10, NHERF3_3, Q5T2W1
PARD3_3, Q8TEW0 = molecular target: PARD3_3, Q8TEW0
RAPGEF6, Q8TEU7 = molecular target: T11, RAPGEF6, Q8TEU7
SNTB1, Q13884 = molecular target: T12, SNTB1, Q13884

PARD3_3, Q8TEW0, sequence (Q8TEW0 582-685): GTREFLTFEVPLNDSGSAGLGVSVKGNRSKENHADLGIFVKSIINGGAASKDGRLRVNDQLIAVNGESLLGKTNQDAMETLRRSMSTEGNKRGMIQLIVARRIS
FRMPD3, Q5JV73, sequence (Q5JV73 12-100): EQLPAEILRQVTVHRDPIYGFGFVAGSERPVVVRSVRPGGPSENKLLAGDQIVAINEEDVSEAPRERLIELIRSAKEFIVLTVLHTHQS
GRIP2_6, Q9C0E4, sequence (Q9C0E4 648-740): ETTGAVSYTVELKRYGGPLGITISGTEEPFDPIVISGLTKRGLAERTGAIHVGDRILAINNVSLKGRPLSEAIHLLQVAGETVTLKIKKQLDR
LAP2, Q96RT1, sequence (Q96RT1 other isoform, or with tags, fused parts or gaps): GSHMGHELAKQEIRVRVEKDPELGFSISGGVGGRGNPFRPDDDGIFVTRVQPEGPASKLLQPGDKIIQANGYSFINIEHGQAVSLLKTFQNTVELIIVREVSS
DLG4_1, P78352, sequence (P78352 62-152): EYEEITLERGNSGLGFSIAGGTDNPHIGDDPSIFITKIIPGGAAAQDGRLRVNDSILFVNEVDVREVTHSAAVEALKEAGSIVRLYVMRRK
Inadl_6, Q8NI35, sequence (Q8NI35 1058-1167): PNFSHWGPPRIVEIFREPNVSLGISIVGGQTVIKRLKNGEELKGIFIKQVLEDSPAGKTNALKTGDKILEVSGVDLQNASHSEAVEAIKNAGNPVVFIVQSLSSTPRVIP
GRASP, Q7Z6J2, sequence (Q7Z6J2 96-193): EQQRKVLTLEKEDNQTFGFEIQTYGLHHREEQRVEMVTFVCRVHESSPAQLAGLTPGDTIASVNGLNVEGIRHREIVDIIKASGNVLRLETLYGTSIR
MAGI2_2, Q86UL8, sequence (Q86UL8 410-522): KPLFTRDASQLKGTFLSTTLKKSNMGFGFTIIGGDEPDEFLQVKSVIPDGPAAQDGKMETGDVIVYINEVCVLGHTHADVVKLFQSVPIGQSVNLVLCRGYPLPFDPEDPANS
MAST1, Q9Y2H9, sequence (Q9Y2H9 962-1065): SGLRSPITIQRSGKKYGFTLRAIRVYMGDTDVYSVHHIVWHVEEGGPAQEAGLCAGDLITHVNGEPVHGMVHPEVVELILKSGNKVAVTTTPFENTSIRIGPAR
LDB3, O75112, sequence (O75112 1-94): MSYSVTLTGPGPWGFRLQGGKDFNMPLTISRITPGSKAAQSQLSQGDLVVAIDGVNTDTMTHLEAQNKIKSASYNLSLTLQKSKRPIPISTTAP

Binder | pKd (APBA1_1, Q02410) | pKd (APBA1_2, Q02410) | pKd (APBA2_2, Q99767) | pKd (DLG1_1, Q12959) | pKd (DLG2_3, Q15700) | pKd (DLG4_1, P78352) | pKd (FRMPD1, Q5SYB0) | pKd (FRMPD3, Q5JV73) | pKd (GOPC, Q9HD26) | pKd (GORASP2, Q9H8Y8) | pKd (GRASP, Q7Z6J2) | pKd (GRIP1_4, Q9Y3R0) | pKd (GRIP1_5, Q9Y3R0) | pKd (GRIP2_6, Q9C0E4) | pKd (HTRA4, P83105) | pKd (Inadl_6, Q8NI35) | pKd (LAP2, Q96RT1) | pKd (LDB3, O75112) | pKd (LIN7B, Q9HAP6) | pKd (MAGI2_2, Q86UL8) | also measured
ETSLVKGIDI [DENND5A, Q6IQ26] | below the threshold | 3.47 | below the threshold | 3.67 | below the threshold | below the threshold | below the threshold | below the threshold | below the threshold | 3.79 | below the threshold | below the threshold | below the threshold | 3.55 | 4.13 | below the threshold | 3.57 | 3.51 | below the threshold | 3.48 | pKd (MAST1, Q9Y2H9): below the threshold; pKd (NHERF3_1, Q5T2W1): below the threshold; pKd (NHERF3_3, Q5T2W1): below the threshold; pKd (PARD3_3, Q8TEW0): 3.83; pKd (RAPGEF6, Q8TEU7): below the threshold; pKd (SNTB1, Q13884): below the threshold
NASRTRITFV [MCM7, P33993] | below the threshold | 4.71 | below the threshold | 4.83 | 4.58 | 4.76 | below the threshold | below the threshold | 4.2 | 5.38 | 4.53 | below the threshold | below the threshold | 3.58 | 4.59 | 4.46 | 3.49 | below the threshold | 3.9 | 5.31 | pKd (MAST1, Q9Y2H9): 4.39; pKd (NHERF3_1, Q5T2W1): 4.28; pKd (NHERF3_3, Q5T2W1): 3.53; pKd (PARD3_3, Q8TEW0): below the threshold; pKd (RAPGEF6, Q8TEU7): below the threshold; pKd (SNTB1, Q13884): 5.13
QSPPNIYYKV [EFNB3, Q15768] | below the threshold | 3.47 | below the threshold | below the threshold | below the threshold | below the threshold | below the threshold | below the threshold | 3.51 | 4.99 | 3.57 | below the threshold | below the threshold | 4.4 | below the threshold | below the threshold | below the threshold | below the threshold | below the threshold | below the threshold | pKd (MAST1, Q9Y2H9): 4.07; pKd (NHERF3_1, Q5T2W1): 3.61; pKd (NHERF3_3, Q5T2W1): below the threshold; pKd (PARD3_3, Q8TEW0): below the threshold; pKd (RAPGEF6, Q8TEU7): below the threshold; pKd (SNTB1, Q13884): below the threshold

Second part, led by results:

pKd (APBA1_1, Q02410) | pKd (APBA1_2, Q02410) | pKd (APBA2_2, Q99767) | pKd (DLG1_1, Q12959) | pKd (DLG2_3, Q15700) | pKd (DLG4_1, P78352) | pKd (FRMPD1, Q5SYB0) | pKd (FRMPD3, Q5JV73) | pKd (GOPC, Q9HD26) | pKd (GORASP2, Q9H8Y8) | pKd (GRASP, Q7Z6J2) | pKd (GRIP1_4, Q9Y3R0) | pKd (GRIP1_5, Q9Y3R0) | pKd (GRIP2_6, Q9C0E4) | pKd (HTRA4, P83105) | pKd (Inadl_6, Q8NI35) | pKd (LAP2, Q96RT1) | pKd (LDB3, O75112) | pKd (LIN7B, Q9HAP6) | pKd (MAGI2_2, Q86UL8) | Binder | also measured
below the threshold | below the threshold | below the threshold | below the threshold | 3.73 | below the threshold | below the threshold | below the threshold | below the threshold | 3.62 | 4.31 | below the threshold | below the threshold | 5.71 | below the threshold | below the threshold | below the threshold | below the threshold | 3.7 | below the threshold | DSATVRTYSC [PPFIA1, Q13136] | pKd (MAST1, Q9Y2H9): below the threshold; pKd (NHERF3_1, Q5T2W1): 3.77; pKd (NHERF3_3, Q5T2W1): below the threshold; pKd (PARD3_3, Q8TEW0): below the threshold; pKd (RAPGEF6, Q8TEU7): below the threshold; pKd (SNTB1, Q13884): below the threshold
below the threshold | below the threshold | below the threshold | 3.56 | 3.67 | below the threshold | below the threshold | below the threshold | 3.77 | 3.54 | 3.58 | below the threshold | below the threshold | below the threshold | 3.8 | below the threshold | below the threshold | below the threshold | 3.92 | below the threshold | PAPGQHTTQI [STK16, O75716] | pKd (MAST1, Q9Y2H9): 4.37; pKd (NHERF3_1, Q5T2W1): 4.26; pKd (NHERF3_3, Q5T2W1): below the threshold; pKd (PARD3_3, Q8TEW0): below the threshold; pKd (RAPGEF6, Q8TEU7): 3.49; pKd (SNTB1, Q13884): 3.57
